Among the data in paper PMC4431499 are Kd values, retold here.

The target in this data set is T1, PTK7 (on intact CCRF-CEM cells) (human (CCRF-CEM, T cell acute lymphoblastic leukemia)) (UniProt Q13308).
T1 sequence: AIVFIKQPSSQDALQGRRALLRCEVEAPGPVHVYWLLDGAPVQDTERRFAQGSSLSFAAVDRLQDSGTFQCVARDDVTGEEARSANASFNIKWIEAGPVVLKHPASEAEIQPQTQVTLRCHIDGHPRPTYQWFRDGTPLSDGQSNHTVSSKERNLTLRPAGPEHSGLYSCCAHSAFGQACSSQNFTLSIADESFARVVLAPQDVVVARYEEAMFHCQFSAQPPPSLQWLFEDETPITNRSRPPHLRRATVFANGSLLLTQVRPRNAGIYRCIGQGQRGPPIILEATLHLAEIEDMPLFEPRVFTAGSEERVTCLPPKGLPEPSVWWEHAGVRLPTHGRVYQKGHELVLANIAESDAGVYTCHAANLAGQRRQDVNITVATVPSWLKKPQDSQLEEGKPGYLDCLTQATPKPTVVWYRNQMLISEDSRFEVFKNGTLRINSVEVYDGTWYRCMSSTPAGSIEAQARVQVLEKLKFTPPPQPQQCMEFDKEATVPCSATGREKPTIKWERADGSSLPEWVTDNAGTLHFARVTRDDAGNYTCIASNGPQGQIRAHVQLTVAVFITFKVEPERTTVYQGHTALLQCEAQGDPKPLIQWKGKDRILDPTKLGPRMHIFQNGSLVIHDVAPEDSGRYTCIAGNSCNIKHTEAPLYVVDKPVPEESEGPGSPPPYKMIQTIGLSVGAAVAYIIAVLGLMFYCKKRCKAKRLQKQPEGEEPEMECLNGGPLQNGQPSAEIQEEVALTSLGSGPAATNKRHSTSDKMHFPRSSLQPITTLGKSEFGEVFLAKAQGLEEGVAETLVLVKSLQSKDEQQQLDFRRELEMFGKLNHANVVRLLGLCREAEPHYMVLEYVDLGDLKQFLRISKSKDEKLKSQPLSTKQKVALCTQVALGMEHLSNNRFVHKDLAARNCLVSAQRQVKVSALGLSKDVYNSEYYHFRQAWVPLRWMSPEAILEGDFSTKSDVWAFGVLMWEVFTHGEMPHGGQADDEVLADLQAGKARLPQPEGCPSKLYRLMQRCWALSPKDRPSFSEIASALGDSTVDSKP
Briefly: flow cytometry, CCRF-CEM cells. As to conditions: apparent Kd on cells, 1x PBS, 0.55 mM MgCl2, pH 7.4, 200 uL, 1e5 cells, 30 min in the dark at room temperature (Methods; Results say on ice). On the technique in general: A flow cytometer gives signals particle by particle.

With “TATGTCTCGAGTATTTTTATCTAACTGCTGCGCCGCCGGGAAAATACTGTACGGTTAGA / GACCGATGGATGACCTGTCTGCCTAATGTGCGTCGTAAG / GACCGATGGATGACTTACGACGCACAAGGAGATCATGAG / GACCGATGGATGACTCATGATCTCCTTTAGGCAGACAGG / GAAGCCACTCTGACCTGTCTGCCTAATGTGCGTCGTAAG / GAAGCCACTCTGACTTACGACGCACAAGGAGATCATGAG / TCATCCATCGGTCCTCATGATCTCCTTTAGGCAGACAGG / GACACACTGAGGTCCTGTCTGCCTAATGTGCGTCGTAAG / GACACACTGAGGTCTTACGACGCACAAGGAGATCATGAG / TCAGAGTGGCTTCCTCATGATCTCCTTTAGGCAGACAGG / TACTCGAGACATACCTGTCTGCCTAATGTGCGTCGTAAG / TACTCGAGACATACTTACGACGCACAAGGAGATCATGAG / ACCTCAGTGTGTCCTCATGATCTCCTTTAGGCAGACAGG [G3-sgc8 DNA dendrimer]”, where the note is “multivalent”, the Kd was 0.07 nM.

“ATCTAACTGCTGCGCCGCCGGGAAAATACTGTACGGTTAGA [free sgc8]”: the Kd was found to be 2.95 nM.
